From the supplement of paper PMC5998384 come the findings set out here.

Data set [1] relates to HeLa Kyoto. Put plainly: thermal stability score vs G1/S (z-score of summed log2 fold changes over temperatures); higher = more thermally stable than in G1/S.
Data set [2] deals with HeLa Kyoto. Put plainly: solubility in G1/S (NP-40 vs SDS abundance) (log2 ratio); higher = more soluble. The conditions noted are these: cell cycle stage: G1/S.
Data set [3] relates to HeLa Kyoto. As to the kind of experiment: solubility change mitosis vs G1/S (difference of NP-40 vs SDS log2 ratios) (log2 ratio difference); higher = more soluble in mitosis.
In data set [4] the test system is HeLa Kyoto. As to the kind of experiment: melting temperature (median over replicates), in situ; higher = more thermally stable.
Where [5] appears, read: cell cycle stage: early G1 (4.5 h after nocodazole release).
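Wherever melting temperature (median over replicates), in situ is given: HeLa Kyoto cells synchronized by double thymidine or nocodazole block, proteins quantified by TMT10plex mass spectrometry, three independent biological replicates.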
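Wherever solubility change mitosis vs G1/S (difference of NP-40 vs SDS log2 ratios) is given: synchronized HeLa Kyoto cells (double thymidine block for G1/S, nocodazole release for mitosis), protein amounts in NP-40 versus SDS lysates quantified by mass spectrometry, three biological replicates.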
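Wherever solubility in G1/S (NP-40 vs SDS abundance) is given: HeLa Kyoto cells arrested at G1/S by double thymidine block, proteins quantified by TMT10plex mass spectrometry in mild NP-40 versus SDS extracts, three biological replicates.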
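Wherever thermal stability score vs G1/S (z-score of summed log2 fold changes over temperatures) is given: synchronized HeLa Kyoto cells, proteins quantified by TMT10plex mass spectrometry, three biological replicates, mitosis taken 0.5 h after nocodazole release, G1/S directly after double thymidine block.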

Regarding “MAAAAGRSLLLLLSSRGGGGGGAGGCGALTAGCFPGLGVSRHRQQQHHRTVHQRIASWQNLGAVYCSTVVPSDDVTVVYQNGLPVISVRLPSRRERCQFTLKPISDSVGVFLRQLQEEDRGIDRVAIYSPDGVRVAASTGIDLLLLDDFKLVINDLTYHVRPPKRDLLSHENAATLNDVKTLVQQLYTTLCIEQHQLNKERELIERLEDLKEQLAPLEKVRIEISRKAEKRTTLVLWGGLAYMATQFGILARLTWWEYSWDIMEPVTYFITYGSAMAMYAYFVMTRQEYVYPEARDRQYLLFFHKGAKKSRFDLEKYNQLKDAIAQAEMDLKRLRDPLQVHLPLRQIGEKD [MCU]”, the figures for the thermal stability score in data set [1] (setting [5]) and in data set [1] (cell cycle stage: mitosis) were 0.0563 and -1.45, respectively. The “solubility in G1/S (log2)” value in data set [2] turned out to be 0.00831. Besides, the “solubility change mitosis (log2)” value in data set [3] was -0.0872. The melting temperature is 53 °C in data set [4] (cell cycle stage: G1/S) and 52.9 °C in data set [4] (cell cycle stage: mitosis).

Turning to “MAAAALRSGWCRCPRRCLGSGIQFLSSHNLPHGSTYQMRRPGGELPLSKSYSSGNRKGFLSGLLDNVKQELAKNKEMKESIKKFRDEARRLEESDVLQEARRKYKTIESETVRTSEVLRKKLGELTGTVKESLHEVSKSDLGRKIKEGVEEAAKTAKQSAESVSKGGEKLGRTAAFRALSQGVESVKKEIDDSVLGQTGPYRRPQRLRKRTEFAGDKFKEEKVFEPNEEALGVVLHKDSKWYQQWKDFKENNVVFNRFFEMKMKYDESDNAFIRASRALTDKVTDLLGGLFSKTEMSEVLTEILRVDPAFDKDRFLKQCENDIIPNVLEAMISGELDILKDWCYEATYSQLAHPIQQAKALGLQFHSRILDIDNVDLAMGKMMEQGPVLIITFQAQLVMVVRNPKGEVVEGDPDKVLRMLYVWALCRDQDELNPYAAWRLLDISASSTEQIL [TIMM44]”, the figures for the thermal stability score in data set [1] (setting [5]) and in data set [1] (cell cycle stage: mitosis) were 0.205 and -0.742, respectively. Further, the “solubility in G1/S (log2)” value in data set [2] was found to be 0.144. Moreover, the “solubility change mitosis (log2)” value in data set [3] is -0.0435. Further, the results for the melting temperature in data set [4] (cell cycle stage: G1/S) and in data set [4] (cell cycle stage: mitosis) were 52 °C and 51.6 °C, respectively.

As for “MAAAANSGSSLPLFDCPTWAGKPPPGLHLDVVKGDKLIEKLIIDEKKYYLFGRNPDLCDFTIDHQSCSRVHAALVYHKHLKRVFLIDLNSTHGTFLGHIRLEPHKPQQIPIDSTVSFGASTRAYTLREKPQTLPSAVKGDEKMGGEDDELKGLLGLPEEETELDNLTEFNTAHNKRISTLTIEEGNLDIQRPKRKRKNSRVTFSEDDEIINPEDVDPSVGRFRNMVQTAVVPVKKKRVEGPGSLGLEESGSRRMQNFAFSGGLYGGLPPTHSEAGSQPHGIHGTALIGGLPMPYPNLAPDVDLTPVVPSAVNMNPAPNPAVYNPEAVNEPKKKKYAKEAWPGKKPTPSLLI [PPP1R8]”, the thermal stability score was 0.0118 in data set [1] (setting [5]) and -0.547 in data set [1] (cell cycle stage: mitosis). Further, in data set [2], the “solubility in G1/S (log2)” value was determined as 0.0809. Moreover, in data set [3], the “solubility change mitosis (log2)” value was -0.0793. For the same sequence, the results for the melting temperature in data set [4] (cell cycle stage: G1/S) and in data set [4] (cell cycle stage: mitosis) were 50.4 °C and 51.2 °C, respectively.

Take “MAAAAPDSRVSEEENLKKTPKKKMKMVTGAVASVLEDEATDTSDSEGSCGSEKDHFYSDDDAIEADSEGDAEPCDKENENDGESSVGTNMGWADAMAKVLNKKTPESKPTILVKNKKLEKEKEKLKQERLEKIKQRDKRLEWEMMCRVKPDVVQDKETERNLQRIATRGVVQLFNAVQKHQKNVDEKVKEAGSSMRKRAKLISTVSKKDFISVLRGMDGSTNETASSRKKPKAKQTEVKSEEGPGWTILRDDFMMGASMKDWDKESDGPDDSRPESASDSDT [RRP15]”: the thermal stability score in data set [1] (setting [5]) is -5.18; in data set [1] (cell cycle stage: mitosis), -11.7. Besides, in data set [2], the “solubility in G1/S (log2)” value is -1.21. Further, the “solubility change mitosis (log2)” value in data set [3] worked out at 0.962. Moreover, in data set [4] (cell cycle stage: mitosis), the melting temperature was 54.2 °C.

In the case of “MAAAAVSGALGRAGWRLLQLRCLPVARCRQALVPRAFHASAVGLRSSDEQKQQPPNSFSQQHSETQGAEKPDPESSHSPPRYTDQGGEEEEDYESEEQLQHRILTAALEFVPAHGWTAEAIAEGAQSLGLSSAAASMFGKDGSELILHFVTQCNTRLTRVLEEEQKLVQLGQAEKRKTDQFLRDAVETRLRMLIPYIEHWPRALSILMLPHNIPSSLSLLTSMVDDMWHYAGDQSTDFNWYTRRAMLAAIYNTTELVMMQDSSPDFEDTWRFLENRVNDAMNMGHTAKQVKSTGEALVQGLMGAAVTLKNLTGLNQRR [COQ9]”, the thermal stability score is -0.112 in data set [1] (setting [5]) and 0.754 in data set [1] (cell cycle stage: mitosis). Besides, the “solubility in G1/S (log2)” value in data set [2] was 0.16. In data set [3], the “solubility change mitosis (log2)” value is 0.333. Besides, the melting temperature in data set [4] (cell cycle stage: G1/S) is 51.5 °C; in data set [4] (cell cycle stage: mitosis), 51.8 °C.

Regarding “MAAACRSVKGLVAVITGGASGLGLATAERLVGQGASAVLLDLPNSGGEAQAKKLGNNCVFAPADVTSEKDVQTALALAKGKFGRVDVAVNCAGIAVASKTYNLKKGQTHTLEDFQRVLDVNLMGTFNVIRLVAGEMGQNEPDQGGQRGVIINTASVAAFEGQVGQAAYSASKGGIVGMTLPIARDLAPIGIRVMTIAPGLFGTPLLTSLPEKVCNFLASQVPFPSRLGDPAEYAHLVQAIIENPFLNGEVIRLDGAIRMQP [HSD17B10]”, the thermal stability score is 0.0147 in data set [1] (setting [5]) and -4.18 in data set [1] (cell cycle stage: mitosis). Further, the “solubility in G1/S (log2)” value in data set [2] is 0.254. For the same sequence, the “solubility change mitosis (log2)” value in data set [3] was -0.041. Moreover, the melting temperature in data set [4] (cell cycle stage: G1/S) came out at 54.5 °C; in data set [4] (cell cycle stage: mitosis), 54.4 °C.
